Test results from paper PMC2787660.

Assays:
Assay in all cases: cross-linking
apoA-I L(46,47)D (human) = target: apoA-I L(46,47)D (human)
apoA-I E198K (human) = target: apoA-I E198K (human)
apoA-I L(42,44)D (human) = target: apoA-I L(42,44)D (human)

Question: For apoA-I L(46,47)D (natural protein), which stoichiometry N (apoA-I L(46,47)D (human)) is on record?
Answer: Its stoichiometry N is 2.

Question: For apoA-I E198K (natural protein), which stoichiometry N (apoA-I E198K (human)) is on record?
Answer: The stoichiometry N was 2.

Question: With apoA-I L(42,44)D (natural protein) as the substance, how does the stoichiometry N (apoA-I L(42,44)D (human)) read?
Answer: The stoichiometry N was 2.
